In paper PMC6529012 one finds reduction by FnbA-2 peptide (10 ug/well, preincubated with the monolayer) of adherence of radiolabelled B314 expressing Tp0136 to C6 (rat) glioma cells, reduction by FnbA-2 peptide (10 ug/well, preincubated with the monolayer) of adherence of radiolabelled B314 expressing Tp0136 to HEK293 cells and average percent binding of radiolabelled B314 expressing Tp0136 to Vero cells data, which are given here for two molecules.

Experiment [1] concerns the target human foreskin fibroblast fibronectin (human).
The target is the same in experiment [2]. This is another data set of the same source.

human foreskin fibroblast fibronectin (human), sequence (P02751 32-2477): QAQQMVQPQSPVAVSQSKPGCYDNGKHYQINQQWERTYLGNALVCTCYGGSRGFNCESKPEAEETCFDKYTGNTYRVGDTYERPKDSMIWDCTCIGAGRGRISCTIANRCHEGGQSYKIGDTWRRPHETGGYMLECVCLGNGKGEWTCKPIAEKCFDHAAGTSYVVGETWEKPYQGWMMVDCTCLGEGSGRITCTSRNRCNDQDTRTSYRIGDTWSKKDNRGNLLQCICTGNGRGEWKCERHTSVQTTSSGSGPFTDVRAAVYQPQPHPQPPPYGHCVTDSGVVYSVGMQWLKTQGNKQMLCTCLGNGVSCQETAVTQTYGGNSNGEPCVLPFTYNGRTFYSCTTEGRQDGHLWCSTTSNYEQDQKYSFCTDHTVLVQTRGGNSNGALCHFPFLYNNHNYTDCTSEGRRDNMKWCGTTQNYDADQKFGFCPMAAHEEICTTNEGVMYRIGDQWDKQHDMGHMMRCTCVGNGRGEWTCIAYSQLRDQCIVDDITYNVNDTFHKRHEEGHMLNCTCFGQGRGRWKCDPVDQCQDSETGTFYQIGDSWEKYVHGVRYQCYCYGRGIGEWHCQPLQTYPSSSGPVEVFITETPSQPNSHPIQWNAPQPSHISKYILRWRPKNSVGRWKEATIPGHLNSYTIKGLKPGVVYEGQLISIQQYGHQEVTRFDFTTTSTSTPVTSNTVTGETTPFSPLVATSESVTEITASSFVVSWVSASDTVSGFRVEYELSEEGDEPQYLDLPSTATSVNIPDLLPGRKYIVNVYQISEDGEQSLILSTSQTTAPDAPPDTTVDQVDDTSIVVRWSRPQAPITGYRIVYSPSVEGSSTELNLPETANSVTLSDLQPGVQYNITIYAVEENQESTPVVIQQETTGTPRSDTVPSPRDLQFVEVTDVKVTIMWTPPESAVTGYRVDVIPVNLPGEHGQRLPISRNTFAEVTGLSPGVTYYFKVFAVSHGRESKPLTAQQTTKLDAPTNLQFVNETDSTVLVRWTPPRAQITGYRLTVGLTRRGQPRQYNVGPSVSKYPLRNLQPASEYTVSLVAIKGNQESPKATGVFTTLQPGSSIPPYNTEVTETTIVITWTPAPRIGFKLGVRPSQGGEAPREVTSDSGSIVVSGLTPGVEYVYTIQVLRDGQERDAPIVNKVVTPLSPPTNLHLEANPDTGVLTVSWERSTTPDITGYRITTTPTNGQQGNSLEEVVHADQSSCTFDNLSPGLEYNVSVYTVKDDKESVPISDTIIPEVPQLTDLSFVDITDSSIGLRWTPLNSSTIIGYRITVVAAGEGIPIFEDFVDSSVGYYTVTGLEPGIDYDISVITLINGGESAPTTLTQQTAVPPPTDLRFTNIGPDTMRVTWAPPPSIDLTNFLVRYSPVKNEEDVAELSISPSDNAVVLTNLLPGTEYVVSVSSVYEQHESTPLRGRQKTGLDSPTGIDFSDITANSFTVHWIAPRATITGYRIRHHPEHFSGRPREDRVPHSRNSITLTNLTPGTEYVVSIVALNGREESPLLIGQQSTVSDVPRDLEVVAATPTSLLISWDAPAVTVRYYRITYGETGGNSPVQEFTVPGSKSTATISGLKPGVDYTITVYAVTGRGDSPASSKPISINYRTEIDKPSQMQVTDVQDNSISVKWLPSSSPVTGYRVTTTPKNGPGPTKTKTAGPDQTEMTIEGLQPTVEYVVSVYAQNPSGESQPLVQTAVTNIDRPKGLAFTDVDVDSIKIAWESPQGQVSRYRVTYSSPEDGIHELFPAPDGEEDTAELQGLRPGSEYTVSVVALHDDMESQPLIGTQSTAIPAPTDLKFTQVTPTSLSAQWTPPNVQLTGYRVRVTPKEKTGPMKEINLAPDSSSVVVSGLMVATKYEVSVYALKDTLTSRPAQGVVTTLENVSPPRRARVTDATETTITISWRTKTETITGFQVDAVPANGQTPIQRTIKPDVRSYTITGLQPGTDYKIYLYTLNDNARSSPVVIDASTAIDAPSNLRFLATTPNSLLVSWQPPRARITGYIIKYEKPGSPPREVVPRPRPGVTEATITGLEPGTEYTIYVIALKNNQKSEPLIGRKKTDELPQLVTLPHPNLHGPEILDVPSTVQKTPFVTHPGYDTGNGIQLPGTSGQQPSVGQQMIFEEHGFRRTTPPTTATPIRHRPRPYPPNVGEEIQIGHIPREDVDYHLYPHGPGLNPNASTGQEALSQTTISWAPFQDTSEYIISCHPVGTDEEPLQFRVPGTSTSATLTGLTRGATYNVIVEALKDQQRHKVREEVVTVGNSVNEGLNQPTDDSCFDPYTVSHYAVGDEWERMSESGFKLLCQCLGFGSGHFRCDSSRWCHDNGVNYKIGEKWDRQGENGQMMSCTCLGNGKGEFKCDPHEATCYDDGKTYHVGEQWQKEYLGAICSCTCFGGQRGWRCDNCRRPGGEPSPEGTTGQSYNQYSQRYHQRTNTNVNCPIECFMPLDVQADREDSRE

B1: Tp0136 of Treponema pallidum subsp. pallidum SS14 strain, expressed on the surface of B. burgdorferi B314 (natural protein)
chain: CDFTGIFAAIQSEVPIKTPSIPGAIYGLVKAGSKLYATNGRLWEKELNGTGSWQKVSSSSVPTDSDKKVMSIATDGNTFVLACVPGTGVYKHCVNGAGSSSTGTTASPSTETCSQHATLVGGTSKPFWLVPGGTGNNGNCGCGGGGGGSSSSSSSCIHIWLVPGGTGNNGNCGCGGGGGGSSSSSSSCIHIKVENTDEQFLDMGEGYVVTTKHLYTKNGSSSAGPAQCPGGGGGGGSSGGGGSSEYTKASCSFSTPILASVSDGCYHYILTKEKVYCRKQDTASSAASSPAQCPSSPSSSSSSSTNAGCEVAHGVDDPLCLAIFKHNGCEYLLIGGSRGYGEIKLEANSSGTNGTCMRLKESNVHKSPGQWGESSPTPKASAEQYRGTVGRFAVQKIYVVEKNGGGNGVAAGGAGCPANASSSSGGTSSTQRPDLYAAVGESSDTYTGLWKFDTTTCSWNRE
Regarding B1, in experiment [1], the reduction by FnbA-2 peptide (10 ug/well, preincubated with the monolayer) of adherence of radiolabelled B314 expressing Tp0136 to C6 (rat) glioma cells is 25.3% and the reduction by FnbA-2 peptide (10 ug/well, preincubated with the monolayer) of adherence of radiolabelled B314 expressing Tp0136 to HEK293 cells amounted to 18.8%. In experiment [2], this molecule gave an average percent binding of radiolabelled B314 expressing Tp0136 to Vero cells of 6%.

B2: Tp0136 of Treponema pallidum subsp. pallidum Nichols (Seattle-Nichols) strain, expressed on the surface of B. burgdorferi B314 (natural protein)
chain: B1 chain
B2: in experiment [1], the reduction by FnbA-2 peptide (10 ug/well, preincubated with the monolayer) of adherence of radiolabelled B314 expressing Tp0136 to C6 (rat) glioma cells came out at 27.7% and the reduction by FnbA-2 peptide (10 ug/well, preincubated with the monolayer) of adherence of radiolabelled B314 expressing Tp0136 to HEK293 cells worked out at 26.3%. Also, the average percent binding of radiolabelled B314 expressing Tp0136 to Vero cells in experiment [2] was found to be 8%.
